Assay results: patent US20120214741

T1: VDAC of isolated rat mitochondria (liver, brain), Q9Z2L0
T1 chain: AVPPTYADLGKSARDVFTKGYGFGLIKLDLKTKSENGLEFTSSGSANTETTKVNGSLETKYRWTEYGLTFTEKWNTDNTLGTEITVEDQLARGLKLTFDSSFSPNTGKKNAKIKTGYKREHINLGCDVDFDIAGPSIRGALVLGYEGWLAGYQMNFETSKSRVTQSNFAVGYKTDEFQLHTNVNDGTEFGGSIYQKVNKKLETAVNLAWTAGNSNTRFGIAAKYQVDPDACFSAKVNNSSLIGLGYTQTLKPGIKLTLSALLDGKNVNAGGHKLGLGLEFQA

T2: native mVDAC1 (mouse VDAC1), purified recombinant
T2 chain: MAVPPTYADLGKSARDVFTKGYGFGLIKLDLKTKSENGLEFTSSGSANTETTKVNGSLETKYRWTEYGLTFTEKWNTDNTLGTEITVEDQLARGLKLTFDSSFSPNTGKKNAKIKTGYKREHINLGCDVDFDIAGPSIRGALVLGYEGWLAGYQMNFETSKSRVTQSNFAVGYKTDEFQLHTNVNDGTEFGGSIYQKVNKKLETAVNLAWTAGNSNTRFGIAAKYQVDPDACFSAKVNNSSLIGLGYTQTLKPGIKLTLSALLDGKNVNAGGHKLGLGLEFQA

B1: Rat brain HK-I (hexokinase-I), purified (protein)
chain: MIAAQLLAYYFTELKDDQVKKIDKYLYAMRLSDEILIDILTRFKKEMKNGLSRDYNPTASVKMLPTFVRSIPDGSEKGDFIALDLGGSSFRILRVQVNHEKNQNVSMESEIYDTPENIVHGSGTQLFDHVADCLGDFMEKKKIKDKKLPVGFTFSFPCRQSKIDEAVLITWTKRFKASGVEGADVVKLLNKAIKKRGDYDANIVAVVNDTVGTMMTCGYDDQQCEVGLIIGTGTNACYMEELRHIDLVEGDEGRMCINTEWGAFGDDGSLEDIRTEFDRELDRGSLNPGKQLFEKMVSGMYMGELVRLILVKMAKEGLLFEGRITPELLTRGKFNTSDVSAIEKDKEGIQNAKEILTRLGVEPSDVDCVSVQHICTIVSFRSANLVAATLGAILNRLRDNKGTPRLRTTVGVDGSLYKMHPQYSRRFHKTLRRLVPDSDVRFLLSESGTGKGAAMVTAVAYRLAEQHRQIEETLAHFRLSKQTLMEVKKRLRTEMEMGLRKETNSKATVKMLPSFVRSIPDGTEHGDFLALDLGGTNFRVLLVKIRSGKKRTVEMHNKIYSIPLEIMQGTGDELFDHIVSCISDFLDYMGIKGPRMPLGFTFSFPCHQTNLDCGILISWTKGFKATDCEGHDVASLLRDAVKRREEFDLDVVAVVNDTVGTMMTCAYEEPTCEIGLIVGTGTNACYMEEMKNVEMVEGNQGQMCINMEWGAFGDNGCLDDIRTDFDKVVDEYSLNSGKQRFEKMISGMYLGEIVRNILIDFTKKGFLFRGQISEPLKTRGIFETKFLSQIESDRLALLQVRAILQQLGLNSTCDDSILVKTVCGVVSKRAAQLCGAGMAAVVEKIRENRGLDHLNVTVGVDGTLYKLHPHFSRIMHQTVKELSPKCTVSFLLSEDGSGKGAALITAVGVRLRGDPSIA
B2: trypsin-treated HK-I (protein)
chain: B1 chain
B3: chymotrypsin-treated HK-I (protein)
chain: FTELKDDQVKKIDKYLYAMRLSDEILIDILTRFKKEMKNGLSRDYNPTASVKMLPTFVRSIPDGSEKGDFIALDLGGSSFRILRVQVNHEKNQNVSMESEIYDTPENIVHGSGTQLFDHVADCLGDFMEKKKIKDKKLPVGFTFSFPCRQSKIDEAVLITWTKRFKASGVEGADVVKLLNKAIKKRGDYDANIVAVVNDTVGTMMTCGYDDQQCEVGLIIGTGTNACYMEELRHIDLVEGDEGRMCINTEWGAFGDDGSLEDIRTEFDRELDRGSLNPGKQLFEKMVSGMYMGELVRLILVKMAKEGLLFEGRITPELLTRGKFNTSDVSAIEKDKEGIQNAKEILTRLGVEPSDVDCVSVQHICTIVSFRSANLVAATLGAILNRLRDNKGTPRLRTTVGVDGSLYKMHPQYSRRFHKTLRRLVPDSDVRFLLSESGTGKGAAMVTAVAYRLAEQHRQIEETLAHFRLSKQTLMEVKKRLRTEMEMGLRKETNSKATVKMLPSFVRSIPDGTEHGDFLALDLGGTNFRVLLVKIRSGKKRTVEMHNKIYSIPLEIMQGTGDELFDHIVSCISDFLDYMGIKGPRMPLGFTFSFPCHQTNLDCGILISWTKGFKATDCEGHDVASLLRDAVKRREEFDLDVVAVVNDTVGTMMTCAYEEPTCEIGLIVGTGTNACYMEEMKNVEMVEGNQGQMCINMEWGAFGDNGCLDDIRTDFDKVVDEYSLNSGKQRFEKMISGMYLGEIVRNILIDFTKKGFLFRGQISEPLKTRGIFETKFLSQIESDRLALLQVRAILQQLGLNSTCDDSILVKTVCGVVSKRAAQLCGAGMAAVVEKIRENRGLDHLNVTVGVDGTLYKLHPHFSRIMHQTVKELSPKCTVSFLLSEDGSGKGAALITAVGVRLRGDPSIA

How the values were obtained:
[1] = molecular target: E72Q-mVDAC1, purified recombinant
[2] = molecular target: T1, VDAC of isolated rat mitochondria …
[3] = molecular target: T2, native mVDAC1 (mouse VDAC1), purified …

| Protein | VDAC1 channel closure in a planar lipid bilayer (currents before and 5 min after HK-I, 28.6 mU/ml) [1] | PTP opening (Ca2+ accumulation and swelling of energized mitochondria) [2] | release of cytochrome c from mitochondria (Western blot) [2] | VDAC1 channel closure in a planar lipid bilayer (currents before and 5 min after HK-I, 28.6 mU/ml) [3] | PTP opening (swelling of energized mitochondria) [2] |
| --- | --- | --- | --- | --- | --- |
| B1 | HK-I is able to close native VDAC1 but not mutated E72Q-VDAC1 (SEQ ID NO:43) | HK-I inhibited PTP opening | HK-I prevented the release of cytochrome c from mitochondria | HK-I is able to close native VDAC1 | – |
| B2 | – | – | – | – | The failure of non-binding species of HK, such as yeast HK, or trypsin- or chymotrypsin-treated HK-I (FIG. 2D) to prevent PTP opening |
| B3 | – | – | – | – | The failure of non-binding species of HK, such as yeast HK, or trypsin- or chymotrypsin-treated HK-I (FIG. 2D) to prevent PTP opening |
